How the values were obtained:
human Tissue Factor (TF) [1] = target: T1, human Tissue Factor (TF) (human, UniProt P13726 33-295); test: flow cytometry, MDA-MB-231 cells; competitor 20 nM FVII-Fc-Alexa488; antibody at 9.25 nM
T1 construct: also called hTF; CD142
Description: (§1) After another 1 hr incubation on ice, cells were washed, stained with a viability dye, and analyzed by flow cytometry. The Alexa488 fluorescence data from viable cells was summarized using median fluorescence intensity.

human Tissue Factor (TF) [2] = target: T1, human Tissue Factor (TF); test: cell-based or functional assay
human Tissue Factor (TF) [3] = target: T1, human Tissue Factor (TF); test: flow cytometry, A431 cells; antibody at 100 nM; competitor 20 nM 25A-Alexa488
Description: as §1

human Tissue Factor (TF) [4] = target: T1, human Tissue Factor (TF); test: flow cytometry, MDA-MB-231 cells; competitor 20 nM FVII-Fc-Alexa488; antibody at 83 nM
Description: as §1

human Tissue Factor (TF) [5] = target: T1, human Tissue Factor (TF); test: cell-based or functional assay; remark: listed apart in the source
human Tissue Factor (TF) [6] = target: T1, human Tissue Factor (TF); test: flow cytometry, MDA-MB-231 cells; competitor 20 nM FVII-Fc-Alexa488; antibody at 250 nM
Description: as §1

human Tissue Factor (TF) [7] = target: T1, human Tissue Factor (TF); test: flow cytometry, A431 cells; antibody at 100 nM; competitor 20 nM 43Ea-Alexa488
Description: as §1

[8] = target: T2, rTF (rat TF) construct on HEK293 cells (rat, UniProt P42533 29-252); test: flow cytometry (live cell staining), antibody titration 1:3 from 250 nM on HEK293 cells transfected with rTF
T2 construct: not shown: transmembrane/cytoplasmic anchor of the cell-surface construct

human Tissue Factor (TF) [9] = target: T1, human Tissue Factor (TF); test: flow cytometry, MDA-MB-231 cells; competitor 20 nM FVII-Fc-Alexa488; antibody at 28 nM
Description: as §1

[10] = target: T3, human Tissue Factor on human TF-positive cells (human, UniProt P13726 33-295); test: flow cytometry, titration of the MC-vc-PAB-MMAE ADC on HCT-116 cells (human TF), 4-parameter fit of MFI
T3 construct: also called hTF; CD142

[11] = target: T4, human Tissue Factor (hTF) (human, UniProt P13726 33-295); test: cell-based or functional assay
[12] = target: T4, human Tissue Factor (hTF); test: cell-based or functional assay; remark: listed apart in the source
human Tissue Factor (TF) [13] = target: T1, human Tissue Factor (TF); test: cell-based or functional assay; remark: listed apart in the source

T2 sequence (P42533 29-252 limits assumed): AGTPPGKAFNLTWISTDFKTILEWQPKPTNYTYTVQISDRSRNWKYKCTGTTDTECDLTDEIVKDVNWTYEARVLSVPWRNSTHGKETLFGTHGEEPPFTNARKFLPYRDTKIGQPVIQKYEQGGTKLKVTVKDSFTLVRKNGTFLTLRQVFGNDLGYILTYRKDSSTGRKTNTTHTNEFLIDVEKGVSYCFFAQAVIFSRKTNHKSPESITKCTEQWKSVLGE

Binder | % FVIIa (human Tissue Factor (TF) [1]) [%] | % IL8 at 2.56 nM antibody (human Tissue Factor (TF) [2]) [%] | % IL8 at 6.4 nM antibody (human Tissue Factor (TF) [2]) [%] | % IL8 at 16 nM antibody (human Tissue Factor (TF) [2]) [%] | % IL8 at 40 nM antibody (human Tissue Factor (TF) [2]) [%] | % IL8 at 100 nM antibody (human Tissue Factor (TF) [2]) [%] | % 25A binding (human Tissue Factor (TF) [3]) [%] | % FVIIa (human Tissue Factor (TF) [4]) [%] | % GM-CSF at 2.56 nM antibody (human Tissue Factor (TF) [5]) [%] | % GM-CSF at 6.4 nM antibody (human Tissue Factor (TF) [5]) [%] | % GM-CSF at 16 nM antibody (human Tissue Factor (TF) [5]) [%] | % GM-CSF at 40 nM antibody (human Tissue Factor (TF) [5]) [%] | % GM-CSF at 100 nM antibody (human Tissue Factor (TF) [5]) [%] | % FVIIa (human Tissue Factor (TF) [6]) [%] | % 43Ea binding (human Tissue Factor (TF) [7]) [%] | % FVIIa (human Tissue Factor (TF) [9]) [%] | EC50 [10] [nM] | IC50, cell viability of A431 cells, Primary ADC, 4 hr, followed by washout (FIG. 20B) [11] [nM] | IC50, cell viability of A431 cells, Primary ADC, 4 hr, followed by washout, absence of FVIIa (FIG. 21A) [11] [nM] | IC50, cell viability of A431 cells, Primary ADC, Continuous (FIG. 20A) [12] [nM] | other results
25A (antibody, human IgG1, V domains shown, Human IgG1; also called antibody designated 25A; Antibody Clone 25A) VH: QVQLVQSGAEVKKPGASVKVSCKASGYTFDVYGISWVRQAPGQGLEWMGWIAPYNGNTNYAQKLQGRVTMTTDTSTSTAYMELRSLRSDDTAVYYCARDAGTYSPFGYGMDVWGQGTTVTVSS VL: DIQMTQSPSTLSASVGDRVTITCRASQSISSWLAWYQQKPGKAPKLLIYKASSLESGVPSRFSGSGSGTEFTLTISSLQPDDFATYYCQQFQSLPPFTFGGGTKVEIK | 100 | 43 | 11 | 10 | 8 | 9 | 3 | 97 | 57 | 24 | 22 | 19 | 22 | 98 | 1 | – | – | – | – | – | –
25A5-T (antibody, human IgG1, V domains shown, Human IgG1; also called antibody designated 25A5-T) VH: QVQLVQSGAEVKKPGASVKVSCKASGYTFDAYGISWVRQAPGQGLEWMGWIAPYSGNTNYAQKLQGRVTMTTDTSTSTAYMELRSLRSDDTAVYYCARDAGTYSPFGYGMDVWGQGTTVTVSS VL: DIQMTQSPSTLSASVGDRVTITCRASESISNWLAWYQQKPGKAPKLLIYKAYSLEYGVPSRFSGSGSGTEFTLTISSLQPDDFATYYCQQFQKLPPFTFGGGTKVEIK | – | – | – | – | – | – | – | – | – | – | – | – | – | – | – | – | – | – | – | – | binding result [8]: no binding (tested: 250 nM)
39A (antibody, human IgG1, V domains shown, Human IgG1; also called antibody designated 39A) VH: QVQLVQSGAEVKKPGSSVKVSCKASGGTFSSNAIGWVRQAPGQGLEWMGSIIPIIGFANYAQKFQGRVTITADESTSTAYMELSSLRSEDTAVYYCARDSGYYYGASSFGMDVWGQGTTVTVSS VL: EIVMTQSPATLSVSPGERATLSCRASQSVSSNLAWYQQKPGQAPRLLIYGASTRATGIPARFSGSGSGTEFTLTISSLQSEDFAVYYCEQYNNLPLTFGGGTKVEIK | 2 | 52 | 6 | 2 | 2 | 3 | – | 2 | 42 | 8 | 5 | 5 | 7 | 2 | – | 2 | – | – | – | – | –
anti-TF antibody 39A conjugated to MC-vc-PAB-MMAE (antibody, IgG1, V domains shown, MC-vc-PAB-MMAE on cysteines of the partially reduced antibody (chain and positions not stated), DAR 3-4, Antibody-drug conjugate (primary ADC) of the IgG1 antibody; also called 39A ADC) VH: QVQLVQSGAEVKKPGSSVKVSCKASGGTFSSNAIGWVRQAPGQGLEWMGSIIPIIGFANYAQKFQGRVTITADESTSTAYMELSSLRSEDTAVYYCARDSGYYYGASSFGMDVWGQGTTVTVSS VL: EIVMTQSPATLSVSPGERATLSCRASQSVSSNLAWYQQKPGQAPRLLIYGASTRATGIPARFSGSGSGTEFTLTISSLQSEDFAVYYCEQYNNLPLTFGGGTKVEIK | – | – | – | – | – | – | – | – | – | – | – | – | – | – | – | – | 0.1 | 0.12 | 0.09 | 0.05 | IC50, cell viability of HPAF-II cells, Primary ADC, Continuous (FIG. 22E) [12]: 0.04 nM; IC50, cell viability of MDA-MB-231 cells, Primary ADC, Continuous (FIG. 22D) [12]: 0.05 nM
1F (antibody, human IgG1, V domains shown, Human IgG1; also called antibody designated 1F) VH: EVQLLESGGGLVQPGGSLRLSCAASGFTFSDYAMGWVRQAPGKGLEWVSTISGSGGLTYYADSVKGRFTISRDNSKNTLYLQMNSLRAEDTAVYYCAKAPYGYYMDVWGKGTTVTVSS VL: not shown | 7 | 18 | 3 | 2 | 2 | 2 | 95 | 7 | 27 | 8 | 6 | 6 | 6 | 6 | 77 | 7 | – | – | – | – | –
1G (antibody, human IgG1, V domains shown, Human IgG1; also called antibody designated 1G) VH: EVQLLESGGGLVQPGGSLRLSCAASGFTFSSYAMAWVRQAPGKGLEWVSAISGSGGLTYYADSVKGRFTISRDNSKNTLYLQMNSLRAEDTAVYYCAKAPYGYYMDVWGKGTTVTVSS VL: not shown | 7 | 26 | 4 | 3 | 2 | 2 | 75 | 7 | 34 | 9 | 7 | 7 | 7 | 6 | 58 | 7 | – | – | – | – | % FXa at 12.5 nM antibody (human Tissue Factor (TF) [13]): 55%; % FXa at 25 nM antibody (human Tissue Factor (TF) [13]): 48%; % FXa at 50 nM antibody (human Tissue Factor (TF) [13]): 41%; % FXa at 100 nM antibody (human Tissue Factor (TF) [13]): 41%
54E (antibody, human IgG1, V domains shown, Human IgG1; also called antibody designated 54E) VH: QVQLVQSGAEVKKPGASVKVSCKASGYTFANYYMHWVRQAPGQGLEWMGIINPSGGITVYAQKFQGRVTMTRDTSTSTVYMELSSLRSEDTAVYYCARGGSKVAALAFDIWGQGTMVTVSS VL: DIQMTQSPSSLSASVGDRVTITCQASQDISNSLNWYQQKPGKAPKLLIYDASNLETGVPSRFSGSRSGTDFTFTISSLQPEDIATYYCQQYNFHPLTFGGGTKVEIK | 11 | 48 | 8 | 3 | 2 | 2 | 99 | 3 | 38 | 10 | 5 | 5 | 5 | 2 | 96 | 3 | – | – | – | – | % FXa at 12.5 nM antibody (human Tissue Factor (TF) [13]): 53%; % FXa at 25 nM antibody (human Tissue Factor (TF) [13]): 44%; % FXa at 50 nM antibody (human Tissue Factor (TF) [13]): 41%; % FXa at 100 nM antibody (human Tissue Factor (TF) [13]): 42%
anti-TF antibody 54E conjugated to MC-vc-PAB-MMAE (antibody, IgG1, V domains shown, MC-vc-PAB-MMAE on cysteines of the partially reduced antibody (chain and positions not stated), DAR 3-4, Antibody-drug conjugate (primary ADC) of the IgG1 antibody; also called 54E ADC) VH: QVQLVQSGAEVKKPGASVKVSCKASGYTFANYYMHWVRQAPGQGLEWMGIINPSGGITVYAQKFQGRVTMTRDTSTSTVYMELSSLRSEDTAVYYCARGGSKVAALAFDIWGQGTMVTVSS VL: DIQMTQSPSSLSASVGDRVTITCQASQDISNSLNWYQQKPGKAPKLLIYDASNLETGVPSRFSGSRSGTDFTFTISSLQPEDIATYYCQQYNFHPLTFGGGTKVEIK | – | – | – | – | – | – | – | – | – | – | – | – | – | – | – | – | 0.33 | 0.26 | 0.2 | 0.07 | –
29D (antibody, human IgG1, V domains shown, Human IgG1; also called antibody designated 29D) VH: QVQLVESGGGVVQPGRSLRLSCAASGFTFHSRGMHWVRQAPGKGLEWVAVITYDGINKYYADSVEGRFTISRDNSKNTLYLQMNSLRAEDTAVYYCARDGVYYGVYDYWGQGTLVTVSS VL: not shown | 6 | 27 | 6 | 2 | 2 | 1 | 70 | 3 | 38 | 15 | 7 | 6 | 5 | 3 | 64 | 4 | – | – | – | – | % FXa at 12.5 nM antibody (human Tissue Factor (TF) [13]): 85%; % FXa at 25 nM antibody (human Tissue Factor (TF) [13]): 77%; % FXa at 50 nM antibody (human Tissue Factor (TF) [13]): 75%; % FXa at 100 nM antibody (human Tissue Factor (TF) [13]): 75%
anti-TF antibody 29E conjugated to MC-vc-PAB-MMAE (antibody, IgG1, V domains shown, MC-vc-PAB-MMAE on cysteines of the partially reduced antibody (chain and positions not stated), DAR 3-4, Antibody-drug conjugate (primary ADC) of the IgG1 antibody; also called 29E ADC) VH: QVQLVESGGGVVQPGRSLRLSCAASGFTFRSYGMHWVRQAPGKGLEWVAVITYDGINKYYADSVEGRFTISRDNSKNTLYLQMNSLRAEDTAVYYCARDGVYYGVYDYWGQGTLVTVSS VL: not shown | – | – | – | – | – | – | – | – | – | – | – | – | – | – | – | – | 0.25 | 0.2 | 0.13 | 0.06 | IC50, cell viability of HPAF-II cells, Primary ADC, Continuous (FIG. 22E) [12]: 0.04 nM; IC50, cell viability of MDA-MB-231 cells, Primary ADC, Continuous (FIG. 22D) [12]: 0.07 nM

— patent publication US20250361322A1 (ICONIC THERAPEUTICS, published 2025)
